# Publication PMC314469, “Protein Interaction Networks by Proteome Peptide Scanning” (PLoS Biology, 2004)
# T1: Yhr016c SH3 (YSC84_YEAST), P32793
# T1 chain: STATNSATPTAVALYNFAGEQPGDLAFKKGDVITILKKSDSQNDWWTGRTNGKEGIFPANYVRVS
# T2: Rvs167 SH3 (RV167_YEAST), P39743
# T2 chain: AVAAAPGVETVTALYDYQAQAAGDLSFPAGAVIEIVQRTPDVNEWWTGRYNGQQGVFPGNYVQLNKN
# T3: Yfr024 SH3 (LSB3_YEAST), P43603
# T3 chain: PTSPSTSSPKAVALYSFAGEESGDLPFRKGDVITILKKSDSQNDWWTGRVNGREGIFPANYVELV
# T4: Boi1 SH3 (BOI1_YEAST), P38041
# T4 chain: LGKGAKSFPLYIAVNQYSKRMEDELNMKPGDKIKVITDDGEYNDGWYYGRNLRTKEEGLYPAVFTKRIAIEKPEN
# T5: Boi2 SH3 (BOI2_YEAST), P39969
# T5 chain: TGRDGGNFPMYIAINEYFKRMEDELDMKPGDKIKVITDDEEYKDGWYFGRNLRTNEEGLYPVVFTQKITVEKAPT
# Target: T1, Yhr016c SH3 (YSC84_YEAST), P32793
# Experiment: SPOT array
row,Binder,"normalised SPOT signal, Boehringer light units (BLU); mean over the file's lines of this peptide"
1,VPPPNVPKKDKREV [YBR058C 659-672],206
2,VPRPSPPIRRKSST [YNL106C 1070-1083],3880
3,VPDPSTPSKPNLEV [YML016C 62-75],157
4,VMKPKSPDKEFFDA [YJR066W 1483-1496],280
5,VILPQIPPKLTFIL [YOR067C 374-387],158
6,VKKPARPWRAKPGQ [YKL220C 450-463],314
7,VQQPEDPLRVLGEY [YDR469W 143-156],65.5
8,VKRPLSPTRINGKS [YDR379W 155-168],499
9,VQTPHVPDRPPSQL [YPR104C 731-744],845
10,VIRPGVPTKFTKKQ [YDL171C 1275-1288],125
11,VPSPIVPNKMRKQL [YKL052C 214-227],191
12,VPEPSKPSRLLLVR [YNL034W 549-562],425
13,VNTPREPVRSSSKI [YJL076W 1015-1028],99.4
14,VPSPGLPEKVNEKS [YLR119W 34-47],217
15,VMVPHLPGKILLSN [YOR357C 104-117],387
16,VIMPEGPRKSVSMA [YJL005W 424-437],358
17,VKEPSFPSRSAFSP [YMR191W 432-445],246
18,VLEPSKPYKKNPFM [YBR284W 663-676],127
19,VKHPMKPFRLMLTD [YGL194C 43-56],3110

# Target: T2, Rvs167 SH3 (RV167_YEAST), P39743
# Experiment: SPOT array
row,Binder,"normalised SPOT signal, Boehringer light units (BLU); mean over the file's lines of this peptide"
1,VPPPNVPKKDKREV [YBR058C 659-672],124
2,VPRPSPPIRRKSST [YNL106C 1070-1083],3250
3,VPDPSTPSKPNLEV [YML016C 62-75],19.5
4,VMKPKSPDKEFFDA [YJR066W 1483-1496],48.3
5,VILPQIPPKLTFIL [YOR067C 374-387],10
6,VKKPARPWRAKPGQ [YKL220C 450-463],49.8
7,VQQPEDPLRVLGEY [YDR469W 143-156],37.1
8,VKRPLSPTRINGKS [YDR379W 155-168],445
9,VQTPHVPDRPPSQL [YPR104C 731-744],52.6
10,VIRPGVPTKFTKKQ [YDL171C 1275-1288],58.1
11,VPSPIVPNKMRKQL [YKL052C 214-227],202
12,VPEPSKPSRLLLVR [YNL034W 549-562],23.1
13,VNTPREPVRSSSKI [YJL076W 1015-1028],69.7
14,VPSPGLPEKVNEKS [YLR119W 34-47],-0
15,VMVPHLPGKILLSN [YOR357C 104-117],58
16,VIMPEGPRKSVSMA [YJL005W 424-437],176
17,VKEPSFPSRSAFSP [YMR191W 432-445],59
18,VLEPSKPYKKNPFM [YBR284W 663-676],5.8
19,VKHPMKPFRLMLTD [YGL194C 43-56],358

# Target: T3, Yfr024 SH3 (LSB3_YEAST), P43603
# Experiment: SPOT array
row,Binder,"normalised SPOT signal, Boehringer light units (BLU); mean over the file's lines of this peptide"
1,VPPPNVPKKDKREV [YBR058C 659-672],980
2,VPRPSPPIRRKSST [YNL106C 1070-1083],23000
3,VPDPSTPSKPNLEV [YML016C 62-75],136
4,VMKPKSPDKEFFDA [YJR066W 1483-1496],852
5,VILPQIPPKLTFIL [YOR067C 374-387],812
6,VKKPARPWRAKPGQ [YKL220C 450-463],5310
7,VQQPEDPLRVLGEY [YDR469W 143-156],46.1
8,VKRPLSPTRINGKS [YDR379W 155-168],2290
9,VQTPHVPDRPPSQL [YPR104C 731-744],4140
10,VIRPGVPTKFTKKQ [YDL171C 1275-1288],202
11,VPSPIVPNKMRKQL [YKL052C 214-227],2650
12,VPEPSKPSRLLLVR [YNL034W 549-562],1200
13,VNTPREPVRSSSKI [YJL076W 1015-1028],910
14,VPSPGLPEKVNEKS [YLR119W 34-47],141
15,VMVPHLPGKILLSN [YOR357C 104-117],413
16,VIMPEGPRKSVSMA [YJL005W 424-437],1120
17,VKEPSFPSRSAFSP [YMR191W 432-445],1090
18,VLEPSKPYKKNPFM [YBR284W 663-676],238
19,VKHPMKPFRLMLTD [YGL194C 43-56],3950

# Target: T4, Boi1 SH3 (BOI1_YEAST), P38041
# Experiment: SPOT array
row,Binder,"normalised SPOT signal, Boehringer light units (BLU); mean over the file's lines of this peptide"
1,VPPPNVPKKDKREV [YBR058C 659-672],294
2,VPRPSPPIRRKSST [YNL106C 1070-1083],494
3,VPDPSTPSKPNLEV [YML016C 62-75],16.2
4,VMKPKSPDKEFFDA [YJR066W 1483-1496],90.1
5,VILPQIPPKLTFIL [YOR067C 374-387],107
6,VKKPARPWRAKPGQ [YKL220C 450-463],90.9
7,VQQPEDPLRVLGEY [YDR469W 143-156],24.5
8,VKRPLSPTRINGKS [YDR379W 155-168],208
9,VQTPHVPDRPPSQL [YPR104C 731-744],53.1
10,VIRPGVPTKFTKKQ [YDL171C 1275-1288],121
11,VPSPIVPNKMRKQL [YKL052C 214-227],530
12,VPEPSKPSRLLLVR [YNL034W 549-562],61.9
13,VNTPREPVRSSSKI [YJL076W 1015-1028],75.8
14,VPSPGLPEKVNEKS [YLR119W 34-47],80.3
15,VMVPHLPGKILLSN [YOR357C 104-117],253
16,VIMPEGPRKSVSMA [YJL005W 424-437],75.3
17,VKEPSFPSRSAFSP [YMR191W 432-445],44.6
18,VLEPSKPYKKNPFM [YBR284W 663-676],116
19,VKHPMKPFRLMLTD [YGL194C 43-56],101

# Target: T5, Boi2 SH3 (BOI2_YEAST), P39969
# Experiment: SPOT array
row,Binder,"normalised SPOT signal, Boehringer light units (BLU); mean over the file's lines of this peptide"
1,VPPPNVPKKDKREV [YBR058C 659-672],17.8
2,VPRPSPPIRRKSST [YNL106C 1070-1083],232
3,VPDPSTPSKPNLEV [YML016C 62-75],12.4
4,VMKPKSPDKEFFDA [YJR066W 1483-1496],134
5,VILPQIPPKLTFIL [YOR067C 374-387],10.1
6,VKKPARPWRAKPGQ [YKL220C 450-463],88.2
7,VQQPEDPLRVLGEY [YDR469W 143-156],16.6
8,VKRPLSPTRINGKS [YDR379W 155-168],49
9,VQTPHVPDRPPSQL [YPR104C 731-744],55.9
10,VIRPGVPTKFTKKQ [YDL171C 1275-1288],63.3
11,VPSPIVPNKMRKQL [YKL052C 214-227],126
12,VPEPSKPSRLLLVR [YNL034W 549-562],17
13,VNTPREPVRSSSKI [YJL076W 1015-1028],30.9
14,VPSPGLPEKVNEKS [YLR119W 34-47],25.5
15,VMVPHLPGKILLSN [YOR357C 104-117],83.6
16,VIMPEGPRKSVSMA [YJL005W 424-437],232
17,VKEPSFPSRSAFSP [YMR191W 432-445],41.9
18,VLEPSKPYKKNPFM [YBR284W 663-676],84
19,VKHPMKPFRLMLTD [YGL194C 43-56],203
